According to EP1988097A1 (dated 2008):

Legend:
[1] = molecular target: T1, P501S peptide on HLA-B*51:01:01 (human); experiment: stated without data
T1 peptide: SACDVSVRV

[2] = molecular target: T2, P501S peptide on HLA-B*51:01:01 (human); experiment: cytokine release
T2 peptide: ASACDVSVRV

- binding result [1]: recognises
- binding result [2]: recognises
B1: TCR of the P501S-specific T cell clone 4E5 (TCR, V domains shown)
Valpha: AQKITQTQPGMFVQEKEAVTLDCTYDTSDQSYGLFWYKQPSSGEMIFLIYQGSYDEQNATEGRYSLNFQKARKSANLVISASQLGDSAMYFCAMREGAGGGNKLTFGTGTQLKVEL
Vbeta: ETGVTQTPRHLVMGMTNKKSLKCEQHLGHNAMYWYKQSAKKPLELMFVYSLEERVENNSVPSRFSPECPNSSHLFLHLHTLQPEDSALYLCASSQDRTSSSYEQYFGPGTRLTVT
